# Assay results as given in patent EP1947117A2.
# Molecular target: rat TSH receptor on FRTL-5 cells (rat) (UniProt P21463)
# Assay: cell-based or functional assay
# rat TSH receptor on FRTL-5 cells (rat), sequence (P21463 22-764): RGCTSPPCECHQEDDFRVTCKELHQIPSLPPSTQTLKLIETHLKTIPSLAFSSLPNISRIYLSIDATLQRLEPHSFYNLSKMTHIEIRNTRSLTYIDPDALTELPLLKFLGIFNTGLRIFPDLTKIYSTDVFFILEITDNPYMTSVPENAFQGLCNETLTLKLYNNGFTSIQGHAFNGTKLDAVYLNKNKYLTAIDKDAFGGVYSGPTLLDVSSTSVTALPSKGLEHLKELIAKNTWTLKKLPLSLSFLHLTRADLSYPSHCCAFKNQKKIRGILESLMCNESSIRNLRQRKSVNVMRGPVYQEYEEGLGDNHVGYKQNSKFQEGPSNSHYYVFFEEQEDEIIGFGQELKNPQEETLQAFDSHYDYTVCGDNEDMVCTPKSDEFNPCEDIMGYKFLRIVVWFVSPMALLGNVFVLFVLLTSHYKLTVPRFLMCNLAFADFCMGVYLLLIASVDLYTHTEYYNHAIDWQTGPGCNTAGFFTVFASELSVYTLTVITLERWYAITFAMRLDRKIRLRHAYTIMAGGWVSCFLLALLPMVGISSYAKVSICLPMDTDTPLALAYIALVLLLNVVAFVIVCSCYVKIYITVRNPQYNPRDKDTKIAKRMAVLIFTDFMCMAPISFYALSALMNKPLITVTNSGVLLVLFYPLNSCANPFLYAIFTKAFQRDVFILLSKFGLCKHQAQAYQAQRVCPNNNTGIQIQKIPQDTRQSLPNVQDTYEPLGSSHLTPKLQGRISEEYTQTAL
"potency, fold increase over hTSH [fold]","half-maximal stimulation of 3H-thymidine incorporation in FRTL-5 cells, fold lower concentration than WT-hTSH [fold]",Substance
2 to 4,,hTSH mutant WT α / hTSHβ-E63R (from UniProt P01215 25-116; P01222 21-132) (ligand)
2 to 4,,hTSH mutant WT α / hTSHβ-I58R (from UniProt P01215 25-116; P01222 21-132) (ligand)
,27,hTSH mutant α-Q13K+P16K+Q20K / TSHβ-L69R (from UniProt P01215 25-116; P01222 21-132) (ligand)
,18,hTSH mutant α-Q13K+P16K+Q20K / WT-hTSHβ (from UniProt P01215 25-116; P01222 21-132) (ligand)

# Molecular target: hCG receptor on MA-10 cells (transformed murine Leydig cells) (murine) (UniProt P30730)
# Sequence (P30730 27-700): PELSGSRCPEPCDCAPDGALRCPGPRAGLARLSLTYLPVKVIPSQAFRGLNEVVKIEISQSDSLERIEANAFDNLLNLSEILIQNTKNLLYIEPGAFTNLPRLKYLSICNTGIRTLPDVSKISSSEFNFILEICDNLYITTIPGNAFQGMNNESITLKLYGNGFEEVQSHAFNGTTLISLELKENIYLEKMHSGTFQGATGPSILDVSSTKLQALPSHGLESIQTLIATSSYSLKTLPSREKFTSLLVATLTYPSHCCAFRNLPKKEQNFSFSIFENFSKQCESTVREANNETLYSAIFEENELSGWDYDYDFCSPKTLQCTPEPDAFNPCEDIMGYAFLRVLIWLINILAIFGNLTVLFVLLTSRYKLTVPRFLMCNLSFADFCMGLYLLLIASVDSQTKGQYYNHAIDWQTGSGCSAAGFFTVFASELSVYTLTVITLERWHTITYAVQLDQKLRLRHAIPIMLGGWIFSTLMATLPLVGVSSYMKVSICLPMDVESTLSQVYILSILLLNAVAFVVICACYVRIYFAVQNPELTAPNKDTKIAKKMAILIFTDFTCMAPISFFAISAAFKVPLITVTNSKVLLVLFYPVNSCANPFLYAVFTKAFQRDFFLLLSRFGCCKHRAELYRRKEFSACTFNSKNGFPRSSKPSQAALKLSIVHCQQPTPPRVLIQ
# Assay: cell-based or functional assay
Substance,"Progesterone synthesis in MA 10 cells, EC50 [ng/mL]","Progesterone synthesis in MA 10 cells, Max [%]","stimulation of progesterone production in MA-10 cells, fold more active than WT-hCG [fold]"
hCG mutant α-Q13K / WT-hCGβ (from UniProt P01215 25-116; P0DN86 21-165) (ligand),2.46,115,
hCG mutant α-Q20K / WT-hCGβ (from UniProt P01215 25-116; P0DN86 21-165) (ligand),2.96,134,
hCG mutant α-Q50P / WT-hCGβ (from UniProt P01215 25-116; P0DN86 21-165) (ligand),3.9,137,
hCG mutant α-T11K / WT-hCGβ (from UniProt P01215 25-116; P0DN86 21-165) (ligand),2.79,156,

# Second part, the substance after the results:
"Progesterone synthesis in MA 10 cells, EC50 [ng/mL]","Progesterone synthesis in MA 10 cells, Max [%]","stimulation of progesterone production in MA-10 cells, fold more active than WT-hCG [fold]",Substance
2.05,161,4,hCG mutant α-P16K / WT-hCGβ (from UniProt P01215 25-116; P0DN86 21-165) (ligand)
1.7,212,,hCG mutant α-P16K+Q20K / WT-hCGβ (from UniProt P01215 25-116; P0DN86 21-165) (ligand)
1.58,216,,hCG mutant α-Q13K+P16K+Q20K / WT-hCGβ (from UniProt P01215 25-116; P0DN86 21-165) (ligand)
1.65,205,,hCG mutant α-Q13K+P16K+Q20K+E14K / WT-hCGβ (from UniProt P01215 25-116; P0DN86 21-165) (ligand)
4.6,145,,hCG mutant α-R67K / WT-hCGβ (from UniProt P01215 25-116; P0DN86 21-165) (ligand)

# Molecular target: human TSH receptor on CHO cells (CHO-hTSHR clone JP09) (human) (UniProt P16473)
# Assay: cell-based or functional assay
Substance,"cAMP stimulation in JP09 cells, EC50 [ng/mL]","cAMP stimulation in JP09 cells, relative potency (WT=1)","potency, fold increase over hTSH [fold]","efficacy of cAMP stimulation in CHO-hTSH cells (Fig. 2g), fold increase [fold]","potency of cAMP stimulation in CHO-hTSH cells (Fig. 2g), fold over wild type hTSH [fold]","potency of cAMP stimulation in CHO-hTSH cells (Fig. 2g), fold increase [fold]","efficacy (maximal response) of cAMP stimulation, fold over WT-hTSH [fold]"
hTSH mutant WT α / TSHβ-L69R (from UniProt P01215 25-116; P01222 21-132) (ligand),2.75,2.4 fold (WT=1),,,,,
hTSH mutant WT α / hTSHβ-I58R+E63R (from UniProt P01215 25-116; P01222 21-132) (ligand),,,,1.5,15,,
hTSH mutant α-P16K / WT-hTSHβ (from UniProt P01215 25-116; P01222 21-132) (ligand),1.05,6.4 fold (WT=1),,,,,
hTSH mutant α-P16K+F17T / WT-hTSHβ (from UniProt P01215 25-116; P01222 21-132) (ligand),3.52,1.9 fold (WT=1),,,,,
hTSH mutant α-P16K+Q20K / WT-hTSHβ (from UniProt P01215 25-116; P01222 21-132) (ligand),0.37,11.8 fold (WT=1),,,,,
hTSH mutant α-Q13K+P16K+Q20K / TSHβ-L69R (from UniProt P01215 25-116; P01222 21-132) (ligand),0.19,35.3 fold (WT=1),,,,,
hTSH mutant α-Q50P / WT-hTSHβ (from UniProt P01215 25-116; P01222 21-132) (ligand),5.54,1.2 fold (WT=1),,,,,
hTSH mutant α-T11K / WT-hTSHβ (from UniProt P01215 25-116; P01222 21-132) (ligand),4.47,1.5 fold (WT=1),,,,,

# The remaining lines, values ahead:
"cAMP stimulation in JP09 cells, EC50 [ng/mL]","cAMP stimulation in JP09 cells, relative potency (WT=1)","potency, fold increase over hTSH [fold]","efficacy of cAMP stimulation in CHO-hTSH cells (Fig. 2g), fold increase [fold]","potency of cAMP stimulation in CHO-hTSH cells (Fig. 2g), fold over wild type hTSH [fold]","potency of cAMP stimulation in CHO-hTSH cells (Fig. 2g), fold increase [fold]","efficacy (maximal response) of cAMP stimulation, fold over WT-hTSH [fold]",Substance
,,2 to 4,,,,,hTSH mutant WT α / hTSHβ-E63R (from UniProt P01215 25-116; P01222 21-132) (ligand)
,,2 to 4,,,,,hTSH mutant WT α / hTSHβ-I58R (from UniProt P01215 25-116; P01222 21-132) (ligand)
,,,1.7,,50,,hTSH mutant WT α / hTSHβ-I58R+E63R+L69R (from UniProt P01215 25-116; P01222 21-132) (ligand)
1.89,3.5 fold (WT=1),,,,,,hTSH mutant α-Q13K / WT-hTSHβ (from UniProt P01215 25-116; P01222 21-132) (ligand)
0.28,23.9 fold (WT=1),,,,,,hTSH mutant α-Q13K+P16K+Q20K / WT-hTSHβ (from UniProt P01215 25-116; P01222 21-132) (ligand)
0.07,95.7 fold (WT=1),,,,,> 1.5,hTSH mutant α-Q13K+P16K+Q20K+E14K / TSHβ-L69R (from UniProt P01215 25-116; P01222 21-132) (ligand)
0.17,39.4 fold (WT=1),,,,,> 1.5,hTSH mutant α-Q13K+P16K+Q20K+E14K / WT-hTSHβ (from UniProt P01215 25-116; P01222 21-132) (ligand)
1.16,5.8 fold (WT=1),,,,,,hTSH mutant α-Q20K / WT-hTSHβ (from UniProt P01215 25-116; P01222 21-132) (ligand)
7.36,0.9 fold (WT=1),,,,,,hTSH mutant α-R67K / WT-hTSHβ (from UniProt P01215 25-116; P01222 21-132) (ligand)

# Molecular target: hCG receptor on MA-10 cells (transformed murine Leydig cells) (murine) (UniProt P30730)
# Assay: 125I-hCG receptor binding assay on MA-10 cells (Fig. 3b)
row,fold more active than WT-hCG in receptor binding activity [fold],Substance
1,4,hCG mutant α-P16K / WT-hCGβ (from UniProt P01215 25-116; P0DN86 21-165) (ligand)

# Molecular target: porcine TSH receptor (solubilized porcine thyroid membranes) (porcine) (UniProt Q8SPP9)
# Sequence (Q8SPP9 22-764): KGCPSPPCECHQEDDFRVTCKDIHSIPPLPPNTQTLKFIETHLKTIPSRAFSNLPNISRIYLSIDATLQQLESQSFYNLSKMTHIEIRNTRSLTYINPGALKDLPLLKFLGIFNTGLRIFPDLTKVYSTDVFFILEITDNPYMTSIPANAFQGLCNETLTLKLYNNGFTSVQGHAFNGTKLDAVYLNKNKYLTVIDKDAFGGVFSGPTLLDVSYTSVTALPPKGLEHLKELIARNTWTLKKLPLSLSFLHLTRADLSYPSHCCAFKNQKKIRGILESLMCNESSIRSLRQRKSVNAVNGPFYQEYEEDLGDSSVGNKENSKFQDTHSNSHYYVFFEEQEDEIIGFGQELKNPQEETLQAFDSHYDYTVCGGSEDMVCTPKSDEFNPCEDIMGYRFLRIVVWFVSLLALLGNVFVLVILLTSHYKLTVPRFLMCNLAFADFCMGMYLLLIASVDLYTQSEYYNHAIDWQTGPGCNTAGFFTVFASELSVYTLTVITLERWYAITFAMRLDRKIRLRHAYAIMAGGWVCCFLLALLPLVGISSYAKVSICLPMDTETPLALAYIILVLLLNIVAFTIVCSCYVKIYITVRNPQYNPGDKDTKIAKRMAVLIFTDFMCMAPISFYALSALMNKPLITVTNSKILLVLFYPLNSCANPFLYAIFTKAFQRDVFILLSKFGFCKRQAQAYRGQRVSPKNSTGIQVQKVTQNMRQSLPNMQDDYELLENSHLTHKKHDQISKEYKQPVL
# Assay: competitive displacement of 125I-bTSH from solubilized porcine thyroid membranes
row,Substance,EC25 of inhibition of 125I-bTSH binding [ng/mL]
1,hTSH mutant α-P16K / WT-hTSHβ (from UniProt P01215 25-116; P01222 21-132) (ligand),189
2,hTSH mutant α-P16K+Q20K / WT-hTSHβ (from UniProt P01215 25-116; P01222 21-132) (ligand),6.4
3,hTSH mutant α-Q13K+P16K+Q20K / TSHβ-L69R (from UniProt P01215 25-116; P01222 21-132) (ligand),1.8
4,hTSH mutant α-Q50P / WT-hTSHβ (from UniProt P01215 25-116; P01222 21-132) (ligand),77.5
5,hTSH mutant α-T11K / WT-hTSHβ (from UniProt P01215 25-116; P01222 21-132) (ligand),68.3

# Results, then the substance that gave them:
row,EC25 of inhibition of 125I-bTSH binding [ng/mL],Substance
1,81.3,WT-hTSH (wild-type recombinant human thyroid stimulating hormone) (from UniProt P01215 25-116; P01222 21-132) (ligand)
2,22.5,hTSH mutant α-Q13K / WT-hTSHβ (from UniProt P01215 25-116; P01222 21-132) (ligand)
3,2.3,hTSH mutant α-Q13K+P16K+Q20K / WT-hTSHβ (from UniProt P01215 25-116; P01222 21-132) (ligand)
4,1.3,hTSH mutant α-Q13K+P16K+Q20K+E14K / TSHβ-L69R (from UniProt P01215 25-116; P01222 21-132) (ligand)
5,2.1,hTSH mutant α-Q13K+P16K+Q20K+E14K / WT-hTSHβ (from UniProt P01215 25-116; P01222 21-132) (ligand)
6,21.3,hTSH mutant α-Q20K / WT-hTSHβ (from UniProt P01215 25-116; P01222 21-132) (ligand)
7,62.5,hTSH mutant α-R67K / WT-hTSHβ (from UniProt P01215 25-116; P01222 21-132) (ligand)

# Molecular target: porcine TSH receptor (solubilized porcine thyroid membranes) (porcine) (UniProt Q8SPP9)
# Assay: competitive binding assay to porcine thyroid membranes
row,fold greater affinity than WT [fold],Substance
1,5,hTSH mutant α-P16K / WT-hTSHβ (from UniProt P01215 25-116; P01222 21-132) (ligand)
